Measured values: the supplement of paper PMC9112550, “Optimization of the antimicrobial peptide Bac7 by deep mutational scanning” (BMC Biology, 2022)

Each sequence was assayed on Escherichia coli TOP10 (assay: shrunken log2 fold change of peptide-encoding DNA abundance (4.5 h post-induction vs induction); higher = less antimicrobial activity (less host growth inhibition)). Conditions: time post-induction: 4.5 h; library: site-saturation at positions 5, 18, 19, 20.
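Also: peptides expressed intracellularly from a pBAD plasmid library in pooled LB shake-flask culture, induced with 0.3% L-arabinose, DNA abundance read by NGS, three biological replicates, DESeq2 with apeglm shrinkage.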

Row | Sequence | shrunken log2 fold change
1 | RRIRNRPPRLPRPRPRPMKRPRP | 0.0981
2 | RRIRHRPPRLPRPRPRPSSPPRP | -0.316
3 | RRIRDRPPRLPRPRPRPTHVPRP | 0.244
4 | RRIRQRPPRLPRPRPRPCILPRP | -0.458
5 | RRIRIRPPRLPRPRPRPQNVPRP | -0.173
6 | RRIRPRPPRLPRPRPRPDKEPRP | -0.0375
7 | RRIRWRPPRLPRPRPRPQPWPRP | 0.363
8 | RRIRDRPPRLPRPRPRPTCYPRP | 0.289
9 | RRIRMRPPRLPRPRPRPYHIPRP | -0.69
10 | RRIRSRPPRLPRPRPRPIPYPRP | -0.344
11 | RRIRVRPPRLPRPRPRPCPFPRP | -0.314
12 | RRIRYRPPRLPRPRPRPNVVPRP | -0.274
13 | RRIRHRPPRLPRPRPRPHYLPRP | 0.0305
14 | RRIRKRPPRLPRPRPRPCHAPRP | 0.384
15 | RRIRKRPPRLPRPRPRPKDSPRP | 0.218
16 | RRIRCRPPRLPRPRPRPSSSPRP | -0.366
17 | RRIRIRPPRLPRPRPRPMQTPRP | -0.0288
18 | RRIRIRPPRLPRPRPRPLIMPRP | -0.853
19 | RRIRKRPPRLPRPRPRPTKKPRP | 0.0465
20 | RRIRRRPPRLPRPRPRPVARPRP | 0.896
21 | RRIRYRPPRLPRPRPRPAWRPRP | 0.0762
22 | RRIRWRPPRLPRPRPRPCKPPRP | 0.119
23 | RRIRFRPPRLPRPRPRPPIDPRP | 0.113
24 | RRIRTRPPRLPRPRPRPSDLPRP | -0.0743
25 | RRIRYRPPRLPRPRPRPFTCPRP | -0.103

Row | Sequence | shrunken log2 fold change
26 | RRIRYRPPRLPRPRPRPWTHPRP | -0.00149
27 | RRIRSRPPRLPRPRPRPVAFPRP | 0.0876
28 | RRIRLRPPRLPRPRPRPQEEPRP | -0.0207
29 | RRIRFRPPRLPRPRPRPGACPRP | -0.0223
30 | RRIRQRPPRLPRPRPRPVLRPRP | -0.027
31 | RRIRSRPPRLPRPRPRPVIIPRP | -0.254
32 | RRIRGRPPRLPRPRPRPLMQPRP | 0.605
33 | RRIRVRPPRLPRPRPRPCSLPRP | -0.201
34 | RRIRNRPPRLPRPRPRPRSGPRP | -0.0312
35 | RRIRFRPPRLPRPRPRPLMCPRP | -0.328
36 | RRIRNRPPRLPRPRPRPLSPPRP | -0.215
37 | RRIRRRPPRLPRPRPRPRQAPRP | 0.801
38 | RRIRCRPPRLPRPRPRPMSTPRP | -0.0888
39 | RRIRHRPPRLPRPRPRPQCNPRP | -0.169
40 | RRIRSRPPRLPRPRPRPIYQPRP | -0.158
41 | RRIRKRPPRLPRPRPRPAPFPRP | 0.659
42 | RRIRGRPPRLPRPRPRPHAFPRP | 0.372
43 | RRIRLRPPRLPRPRPRPIMYPRP | -0.16
44 | RRIRERPPRLPRPRPRPWVLPRP | -0.0134
45 | RRIRQRPPRLPRPRPRPTPSPRP | 0.507
46 | RRIRERPPRLPRPRPRPWVRPRP | -0.122
47 | RRIRPRPPRLPRPRPRPPIDPRP | 0.216
48 | RRIRDRPPRLPRPRPRPLVGPRP | 0.337
49 | RRIRERPPRLPRPRPRPYWNPRP | -0.858
50 | RRIRPRPPRLPRPRPRPLHPPRP | 0.252

Row | Sequence | shrunken log2 fold change
51 | RRIRGRPPRLPRPRPRPEWEPRP | 0.00476
52 | RRIRTRPPRLPRPRPRPLTNPRP | -0.0099
53 | RRIRMRPPRLPRPRPRPPDTPRP | 1.84
54 | RRIRYRPPRLPRPRPRPTTKPRP | -0.179
55 | RRIRYRPPRLPRPRPRPYYMPRP | -1.06
56 | RRIRLRPPRLPRPRPRPSGPPRP | -0.216
57 | RRIRRRPPRLPRPRPRPIWGPRP | 0.163
58 | RRIRNRPPRLPRPRPRPQYDPRP | -0.0449
59 | RRIRWRPPRLPRPRPRPAQTPRP | 0.476
60 | RRIRKRPPRLPRPRPRPFFLPRP | 0.225
61 | RRIRVRPPRLPRPRPRPPKDPRP | 0.219
62 | RRIRERPPRLPRPRPRPLMKPRP | -0.502
63 | RRIRMRPPRLPRPRPRPEPLPRP | 0.277
64 | RRIRMRPPRLPRPRPRPGYAPRP | 0.341
65 | RRIRKRPPRLPRPRPRPGTDPRP | -0.165
66 | RRIRMRPPRLPRPRPRPEWHPRP | 0.161
67 | RRIRRRPPRLPRPRPRPHMHPRP | -0.083
68 | RRIRHRPPRLPRPRPRPRRYPRP | 0.0129
69 | RRIRMRPPRLPRPRPRPSMQPRP | 0.345
70 | RRIRIRPPRLPRPRPRPKKDPRP | -0.602
71 | RRIRSRPPRLPRPRPRPACWPRP | 0.523
72 | RRIRHRPPRLPRPRPRPADPPRP | 0.0438
73 | RRIRKRPPRLPRPRPRPSVEPRP | 0.0133
74 | RRIRNRPPRLPRPRPRPDSFPRP | -0.0232
75 | RRIRQRPPRLPRPRPRPEIDPRP | -0.0412

Row | Sequence | shrunken log2 fold change
76 | RRIRPRPPRLPRPRPRPEARPRP | 0.374
77 | RRIRRRPPRLPRPRPRPALKPRP | 0.366
78 | RRIRARPPRLPRPRPRPPPYPRP | 0.698
79 | RRIRFRPPRLPRPRPRPVTYPRP | -0.557
80 | RRIRARPPRLPRPRPRPCRQPRP | -0.0784
81 | RRIRYRPPRLPRPRPRPNNVPRP | -0.323
82 | RRIRSRPPRLPRPRPRPFLLPRP | -0.411
83 | RRIRHRPPRLPRPRPRPCLAPRP | -0.0627
84 | RRIRARPPRLPRPRPRPYFIPRP | -0.73
85 | RRIRWRPPRLPRPRPRPCPGPRP | -0.218
86 | RRIRIRPPRLPRPRPRPHEEPRP | -0.031
87 | RRIRFRPPRLPRPRPRPCDRPRP | -0.179
88 | RRIRPRPPRLPRPRPRPVFEPRP | 0.222
89 | RRIRVRPPRLPRPRPRPRYFPRP | -0.446
90 | RRIRIRPPRLPRPRPRPYYKPRP | -1.01
91 | RRIRIRPPRLPRPRPRPGYEPRP | -0.237
92 | RRIRARPPRLPRPRPRPFTSPRP | 0.0705
93 | RRIRNRPPRLPRPRPRPGQRPRP | 0.00993
94 | RRIRIRPPRLPRPRPRPTCFPRP | -0.249
95 | RRIRWRPPRLPRPRPRPHYLPRP | -0.106
96 | RRIRIRPPRLPRPRPRPTLNPRP | -0.181
97 | RRIRFRPPRLPRPRPRPSKDPRP | -0.347
98 | RRIRPRPPRLPRPRPRPIDYPRP | -0.13
99 | RRIRCRPPRLPRPRPRPCSGPRP | -0.513
100 | RRIRCRPPRLPRPRPRPMVYPRP | -0.187

Row | Sequence | shrunken log2 fold change
101 | RRIRHRPPRLPRPRPRPARVPRP | 0.502
102 | RRIRWRPPRLPRPRPRPIYTPRP | -0.412
103 | RRIRQRPPRLPRPRPRPIACPRP | -0.238
104 | RRIRFRPPRLPRPRPRPFSAPRP | -0.274
105 | RRIRPRPPRLPRPRPRPFKWPRP | 0.0103
106 | RRIRQRPPRLPRPRPRPKFWPRP | 0.104
107 | RRIRCRPPRLPRPRPRPCEAPRP | -0.369
108 | RRIRQRPPRLPRPRPRPYVFPRP | -0.648
109 | RRIRLRPPRLPRPRPRPMCAPRP | 0.0321
110 | RRIRDRPPRLPRPRPRPFKFPRP | -0.122
111 | RRIRKRPPRLPRPRPRPIHGPRP | -0.122
112 | RRIRCRPPRLPRPRPRPLISPRP | -0.3
113 | RRIRVRPPRLPRPRPRPSRIPRP | 0.0876
114 | RRIRERPPRLPRPRPRPLEYPRP | -0.494
115 | RRIRARPPRLPRPRPRPYSPPRP | -0.409
116 | RRIRPRPPRLPRPRPRPQSAPRP | 1.69
117 | RRIRHRPPRLPRPRPRPIDTPRP | -0.291
118 | RRIRRRPPRLPRPRPRPLKPPRP | 0.314
119 | RRIRGRPPRLPRPRPRPFKMPRP | 0.143
120 | RRIRGRPPRLPRPRPRPIAYPRP | 0.117
121 | RRIRGRPPRLPRPRPRPDHHPRP | -0.0187
122 | RRIRHRPPRLPRPRPRPMCMPRP | 0.201
123 | RRIRQRPPRLPRPRPRPDEMPRP | -0.0225
124 | RRIRYRPPRLPRPRPRPGLDPRP | -0.188
125 | RRIRRRPPRLPRPRPRPGEGPRP | 0.747

Row | Sequence | shrunken log2 fold change
126 | RRIRMRPPRLPRPRPRPNNCPRP | -0.167
127 | RRIRCRPPRLPRPRPRPRALPRP | 0.113
128 | RRIRARPPRLPRPRPRPCMRPRP | 0.238
129 | RRIRFRPPRLPRPRPRPNPCPRP | -0.349
130 | RRIRWRPPRLPRPRPRPQGAPRP | 0.988
131 | RRIRYRPPRLPRPRPRPFYDPRP | -0.708
132 | RRIRNRPPRLPRPRPRPWTRPRP | -0.00821
133 | RRIRHRPPRLPRPRPRPFKCPRP | -0.0134
134 | RRIRFRPPRLPRPRPRPEYYPRP | -0.0413
135 | RRIRCRPPRLPRPRPRPHSMPRP | -0.718
136 | RRIRFRPPRLPRPRPRPFDCPRP | -0.0469
137 | RRIRMRPPRLPRPRPRPIEAPRP | 0.111
138 | RRIRSRPPRLPRPRPRPKIYPRP | -0.265
139 | RRIRIRPPRLPRPRPRPEWQPRP | 0.118
140 | RRIRNRPPRLPRPRPRPICNPRP | -0.203
141 | RRIRWRPPRLPRPRPRPQRSPRP | 0.172
142 | RRIRPRPPRLPRPRPRPHGSPRP | 0.063
143 | RRIRIRPPRLPRPRPRPSRSPRP | -0.605
144 | RRIRMRPPRLPRPRPRPGLVPRP | 0.294
145 | RRIRTRPPRLPRPRPRPKKWPRP | -0.0616
146 | RRIRYRPPRLPRPRPRPNAYPRP | -0.212
147 | RRIRGRPPRLPRPRPRPDWVPRP | 0.287
148 | RRIRPRPPRLPRPRPRPAKWPRP | 0.0878
149 | RRIRYRPPRLPRPRPRPKLVPRP | -0.067
150 | RRIRIRPPRLPRPRPRPLQNPRP | -0.359
